Laboratory results reported in patent publication US20210244806A1, “Recombinant Protease Inhibitor-Containing Compositions, Methods for Producing Same and Uses Thereof” (ORAMED LTD., priority 2018, published 2021).

Tests used:
[1] = molecular target: chymotrypsin (Bos taurus, UniProt P00766); assay: Chymotrypsin Inhibition Assay; format: biochemical
Procedure: FIG. 4. Chymotrypsin Inhibition Assay.
Unless indicated otherwise, anti-chymotrypsin activity referred to herein is measured using chymotrypsin having an activity of 40 BTEE units per mg. of chymotrypsin, and is expressed in mg. of chymotrypsin inhibited per mg. of protein being tested. BTEE refers to N-Benzoyl-L-Tyrosine Ethyl Ester (see the directions for Sigma-Aldrich Product No. B6125).
(§1) Protease inhibitor enzymatic activity was verified for the recombinant product, and demonstrable inhibition of chymotrypsin activity was achieved (FIG. 4) as well as inhibition of trypsin activity (FIG. 5).

[2] = molecular target: T1, trypsin (Bos taurus, UniProt P00760); assay: Trypsin Inhibition Assay; format: biochemical
T1 sequence (P00760 24-246): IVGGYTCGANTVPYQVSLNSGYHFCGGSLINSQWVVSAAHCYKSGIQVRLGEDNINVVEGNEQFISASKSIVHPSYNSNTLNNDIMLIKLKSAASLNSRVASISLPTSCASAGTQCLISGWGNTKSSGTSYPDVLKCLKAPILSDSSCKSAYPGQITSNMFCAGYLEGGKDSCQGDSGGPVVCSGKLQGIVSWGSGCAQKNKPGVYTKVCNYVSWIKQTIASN
Procedure: FIG. 5. Trypsin Inhibition Assay.
Unless indicated otherwise, anti-trypsin activity referred to herein is measured using trypsin having an activity of 10,000 BAEE units per mg. of trypsin, and is expressed in mg. of trypsin inhibited per mg. of protein being tested. BAEE refers to Na-Benzoyl-L-Arginine Ethyl Ester Solution (see the directions for Sigma-Aldrich Product No. B4500). For example, in a typical assay, one unit corresponds to the amount of inhibitor that reduces the trypsin activity by one benzoyl-L-arginine ethyl ester unit (BAEE-U). One BAEE-U is the amount of enzyme that increases the absorbance at 253 nm by 0.001 per minute at pH 7.6 and 25° C. See, for example, K. Ozawa, M. Laskowski, 1966, J. Biol. Chem. 241:3955; and Y. Birk, 1976, Meth. Enzymol. 45:700.
as §1

B1: rBBI: recombinant Bowman-Birk type proteinase inhibitor, codon-optimized (SEQ ID NO: 1), secreted from Pichia pastoris GS115, clone B17 (protein, listed as Pichia pastoris)
chain: DDESSKPCCDQCACTKSNPPQCRCSDMRLNSCHSACKSCICALSYPAQCFCVDITDFCYEPCKPSEDDKEN
B1 was tested, and the “inhibition of chymotrypsin activity compared to purified SBTI purified from soya” value ([1]; FIG. 4, result in words) was “far greater inhibition of enzymatic activity”, the “chymotrypsin inhibited by 1 mg inhibitor” value ([1]; FIG. 4, chymotrypsin of 40 BTEE units per mg) was 2.3 mg chymotrypsin inhibited by 1 mg inhibitor and the “inhibition of trypsin activity compared to purified SBTI purified from soya” value ([2]; FIG. 5, result in words) was “far greater inhibition of enzymatic activity”. For the same molecule, the “trypsin inhibited by 1 mg inhibitor” value ([2]; FIG. 5, trypsin of 10,000 BAEE units per mg) was 1.7 mg trypsin inhibited by 1 mg inhibitor.
